Measurements taken from the supplement of paper PMC6757056.
± gives the standard deviation of the averaged measurements.

B1: library; a variant is named by its letters at N, in order (parent)
chain: GCUGUCACCGGUGUAUUACCCUAGUGGUCGACCGGUCUGAUGAGUCUNNNNNNAGACGAAACAGC

What was measured:
hypoxanthine [1] = variants of: B1; assay: FACS-Seq fitted mean relative fluorescence mCherry/BFP without ligand (log10 relative fluorescence); ligand: hypoxanthine (xanthine aptamer); higher = higher reporter protein expression; conditions: HEK293T, ligand present: no
Summary of the method: (§1)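 Enriched HEK293T cells carrying, by lentivirus, an mCherry reporter with the ribozyme switch and an EF1α-BFP marker spent 48 h with or without ligand and were sorted into 6 bins by mCherry/BFP. MiSeq sequencing of PCR-amplified bin genomic DNA gave bin counts. Fluorescence was calculated as the fitted normal mean of those counts. Counts were binned on log10(mCherry/BFP), and means were scaled to five spiked-in control ribozymes.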

hypoxanthine [2] = variants of: B1; assay: normalized RNA/DNA level with ligand (relative to sTRSVctl = 100) (log10 (% of sTRSVctl)); ligand: hypoxanthine (xanthine aptamer); higher = less ribozyme self-cleavage, higher mRNA level; conditions: ligand concentration (+) RNA-Seq: 5 mM, HEK293T, reporter: mCherry (pCS4076), ligand present: yes
Summary of the method: (§2)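 Ribozyme switch library plasmids with mCherry reporters (eGFP in certain ligand experiments) went into HEK293T cells at 4 µg per 6-well well. Where ligand was used, it was applied 1 h before transfection, and total RNA was extracted with EDTA 72 h later for reverse transcription, amplification, barcoding and sequencing. RNA level is the RNA-to-DNA read ratio normalized to a spiked-in non-cleaving sequence or to the leading sequences, then scaled and log-transformed. Scaling was ×100 with log10, the leading set comprised 25 sequences, and the cutoff was ≥100 DNA reads.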

hypoxanthine [3] = variants of: B1; assay: normalized RNA/DNA level without ligand (relative to sTRSVctl = 100) (log10 (% of sTRSVctl)); ligand: hypoxanthine (xanthine aptamer); higher = less ribozyme self-cleavage, higher mRNA level; conditions: HEK293T, reporter: mCherry (pCS4076), ligand present: no
Summary of the method: as §2

hypoxanthine [4] = variants of: B1; assay: FACS-Seq fitted mean relative fluorescence mCherry/BFP with ligand (log10 relative fluorescence); ligand: hypoxanthine (xanthine aptamer); ligand concentration (+) FACS-Seq: 5 mM; higher = higher reporter protein expression; conditions: HEK293T, ligand present: yes
Summary of the method: as §1

| Variant | FACS-Seq fitted mean (log10) (hypoxanthine [1]) | normalized RNA/DNA level with ligand (log10) (hypoxanthine [2]) | normalized RNA/DNA level without ligand (log10) (hypoxanthine [3]) | FACS-Seq fitted mean (log10) (hypoxanthine [4]) |
| --- | --- | --- | --- | --- |
| GCUGUCACCGGUGUAUUACCCUAGUGGUCGACCGGUCUGAUGAGUCUGGGUUAAGACGAAACAGC [GGGUUA] | 0.574 ± 0.047 | 1.99 ± 0.018 | 1.845 ± 0.013 | 0.558 ± 0.01 |
| GCUGUCACCGGUGUAUUACCCUAGUGGUCGACCGGUCUGAUGAGUCUCGGUUCAGACGAAACAGC [CGGUUC] | 0.133 ± 0.2 | 1.964 ± 0.01 | 1.79 ± 0.066 | 0.211 ± 0.024 |
| GCUGUCACCGGUGUAUUACCCUAGUGGUCGACCGGUCUGAUGAGUCUUGGUUCAGACGAAACAGC [UGGUUC] | -0.0246 ± 0.0066 | 1.96 ± 0.063 | 1.925 ± 0.018 | 0.212 ± 0.028 |
| GCUGUCACCGGUGUAUUACCCUAGUGGUCGACCGGUCUGAUGAGUCUGGGUUGAGACGAAACAGC [GGGUUG] | 0.034 ± 0.047 | 1.92 ± 0.024 | 1.64 ± 0.073 | 0.486 ± 0.065 |
| GCUGUCACCGGUGUAUUACCCUAGUGGUCGACCGGUCUGAUGAGUCUAGGUUGAGACGAAACAGC [AGGUUG] | 0.0275 ± 0.013 | 1.88 ± 0.021 | 1.48 ± 0.042 | 0.557 ± 0.036 |
| GCUGUCACCGGUGUAUUACCCUAGUGGUCGACCGGUCUGAUGAGUCUUGGUUUAGACGAAACAGC [UGGUUU] | 0.325 ± 0.015 | 1.95 ± 0.023 | 1.885 ± 0.005 | 0.434 ± 0.035 |
| GCUGUCACCGGUGUAUUACCCUAGUGGUCGACCGGUCUGAUGAGUCUCGUAAAAGACGAAACAGC [CGUAAA] | 0.554 ± 0.028 | 1.865 ± 0.0031 | 1.65 ± 0.034 | 0.4915 ± 0.0049 |
| GCUGUCACCGGUGUAUUACCCUAGUGGUCGACCGGUCUGAUGAGUCUGGUAAAAGACGAAACAGC [GGUAAA] | 0.652 ± 0.01 | 1.9 ± 0.022 | 1.69 ± 0.007 | 0.581 ± 0.029 |
| GCUGUCACCGGUGUAUUACCCUAGUGGUCGACCGGUCUGAUGAGUCUAGUAAAAGACGAAACAGC [AGUAAA] | 0.625 ± 0.22 | 1.891 ± 0.011 | 1.73 ± 0.063 | 0.59 ± 0.032 |
| GCUGUCACCGGUGUAUUACCCUAGUGGUCGACCGGUCUGAUGAGUCUGGUAACAGACGAAACAGC [GGUAAC] | 0.447 ± 0.063 | 1.96 ± 0.067 | 1.82 ± 0.031 | 0.455 ± 0.018 |
| GCUGUCACCGGUGUAUUACCCUAGUGGUCGACCGGUCUGAUGAGUCUGGUAAGAGACGAAACAGC [GGUAAG] | 0.176 ± 0.027 | 1.744 ± 0.013 | 1.25 ± 0.054 | 0.6778 ± 0.0029 |
| GCUGUCACCGGUGUAUUACCCUAGUGGUCGACCGGUCUGAUGAGUCUUGUAAGAGACGAAACAGC [UGUAAG] | 0.327 ± 0.084 | 1.9 ± 0.033 | 1.67 ± 0.063 | 0.586 ± 0.075 |
| GCUGUCACCGGUGUAUUACCCUAGUGGUCGACCGGUCUGAUGAGUCUGGUAAUAGACGAAACAGC [GGUAAU] | 0.123 ± 0.061 | 1.918 ± 0.019 | 1.79 ± 0.035 | 0.314 ± 0.036 |
| GCUGUCACCGGUGUAUUACCCUAGUGGUCGACCGGUCUGAUGAGUCUAGUAAUAGACGAAACAGC [AGUAAU] | 0.85054 ± 0.00034 | 1.88 ± 0.03 | 1.85 ± 0.056 | 0.78 ± 0.058 |
| GCUGUCACCGGUGUAUUACCCUAGUGGUCGACCGGUCUGAUGAGUCUCGUACAAGACGAAACAGC [CGUACA] | 0.575 ± 0.038 | 1.92 ± 0.061 | 1.72 ± 0.037 | 0.49 ± 0.085 |
| GCUGUCACCGGUGUAUUACCCUAGUGGUCGACCGGUCUGAUGAGUCUUGUACAAGACGAAACAGC [UGUACA] | 0.848 ± 0.044 | 1.919 ± 0.018 | 1.85 ± 0.066 | 0.78 ± 0.076 |
| GCUGUCACCGGUGUAUUACCCUAGUGGUCGACCGGUCUGAUGAGUCUCGUACCAGACGAAACAGC [CGUACC] | 0.313 ± 0.054 | 1.98 ± 0.065 | 1.89 ± 0.021 | 0.536 ± 0.047 |
| GCUGUCACCGGUGUAUUACCCUAGUGGUCGACCGGUCUGAUGAGUCUGGUACGAGACGAAACAGC [GGUACG] | 0.173 ± 0.027 | 1.88 ± 0.031 | 1.49 ± 0.016 | 0.506 ± 0.019 |
| GCUGUCACCGGUGUAUUACCCUAGUGGUCGACCGGUCUGAUGAGUCUAGUACGAGACGAAACAGC [AGUACG] | 0.173 ± 0.058 | 1.84 ± 0.022 | 1.38 ± 0.052 | 0.423 ± 0.086 |
| GCUGUCACCGGUGUAUUACCCUAGUGGUCGACCGGUCUGAUGAGUCUGGUACUAGACGAAACAGC [GGUACU] | 0.2 ± 0.042 | 1.97 ± 0.083 | 1.93 ± 0.047 | 0.258 ± 0.029 |
| GCUGUCACCGGUGUAUUACCCUAGUGGUCGACCGGUCUGAUGAGUCUUGUACUAGACGAAACAGC [UGUACU] | 0.71 ± 0.019 | 1.933 ± 0.012 | 1.8501 ± 0.00062 | 0.66 ± 0.018 |
